The values that follow come from PMC11289387, “Structure of the MlaC-MlaD complex reveals molecular basis of periplasmic phospholipid transport” (Nature Communications, 2024).

The data set concerns the molecule itself. The data set is described as follows: cryo-EM structure; cardiolipin-loaded MlaD^32-183 with MlaC-apo, cross-linked with 0.1% glutaraldehyde, 0.8 mg/mL in 20 mM Tris pH 8.0, 150 mM NaCl; 1:6 map at 4.35 Å, 2:6 map at 4.38 Å.

B1: periplasmic domain of E. coli MlaD (residues 32-183), MlaD^32-183 (domain or fragment, UniProt P64604 32-183, looked up)
chain: TSIRTEPTYTLYATFDNIGGLKARSPVSIGGVVVGRVADITLDPKTYLPRVTLEIEQRYNHIPDTSSLSIRTSGLLGEQYLALNVGFEDPELGTAILKDGDTIQDTKSAMVLEDLIGQFLYGSKGDDNKNSGDAPAAAPGNNETTEPVGTTK
notes: synthesised (Genscript), cloned in pET26b; No cleavage of the His tag is described; In the functional rows of the MlaC mutants the wild-type MlaD stood as part of MlaFEDB in acceptor proteoliposomes, not as this fragment; source: E. coli BL21(DE3), purified (Ni-NTA, Superdex 200); lipid removed with β-OG and loaded with cardiolipin where stated
As for B1, the “stoichiometry N” value worked out at 6.

In general, stoichiometry N refers to a count of units in the complex or per binding partner.
